# B1: VEGFA promoter SerRS binding site 27 bp (dsDNA)
# DNA 1: GGCGGGGCGGAGCCATGCGCCCCCCCC
# DNA 2: GGGGGGGGCGCATGGCTCCGCCCCGCC
# Biological target: SerRS WT (Homo sapiens, UniProt P49591 1-514)
# Assay: EMSA; EMSA: 20 mM Tris-HCl pH 8.0, 60 mM KCl, 5 mM MgCl2, 0.1 mg/mL BSA, 10 ng/uL poly(dG-dC), 1 mM DTT, 30 min, room temperature; 0.08 pmol labeled DNA; 5% native PAGE
# Conditions: protein: recombinant; tags: C-terminal His6; chain copies: 2; label: 5'-32P; annealed oligonucleotides
# SerRS WT, sequence (P49591 whole entry): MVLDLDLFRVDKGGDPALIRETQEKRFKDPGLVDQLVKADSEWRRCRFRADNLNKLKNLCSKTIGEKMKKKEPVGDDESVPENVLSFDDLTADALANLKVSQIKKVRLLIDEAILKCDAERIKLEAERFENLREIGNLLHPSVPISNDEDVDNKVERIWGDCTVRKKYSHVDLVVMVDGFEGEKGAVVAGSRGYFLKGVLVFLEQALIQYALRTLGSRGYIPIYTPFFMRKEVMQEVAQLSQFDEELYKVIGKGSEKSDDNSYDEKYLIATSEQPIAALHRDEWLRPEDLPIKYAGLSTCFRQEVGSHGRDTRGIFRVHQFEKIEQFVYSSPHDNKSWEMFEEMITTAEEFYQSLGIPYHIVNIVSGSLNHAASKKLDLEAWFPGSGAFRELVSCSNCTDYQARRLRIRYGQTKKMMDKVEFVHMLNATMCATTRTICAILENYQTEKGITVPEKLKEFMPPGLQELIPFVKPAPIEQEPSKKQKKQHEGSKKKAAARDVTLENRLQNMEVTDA
binder,measurement,value
B1,binding result,binds

# From publication PMC7755189, “Phosphorylation of seryl-tRNA synthetase by ATM/ATR is essential for hypoxia-induced angiogenesis”
